The RNAGym collection of RNA variant scans (doi:10.1073/pnas.2313332121)

B1: TPR t1 (parent)
chain: GACCAAUCUGCCCUCAGAGCUCGAGAACAUCUUCGGAUGCAGAGGAGGCAGGCUUCGGUGGCGCGAUAGCGCCAACGUCCUCAACCUCCAAUGCAUCCCACCACAUGAUGAUGCCUGAAGAGCCUUGGUUUUUUG

Variants of: B1
Assay: polymerase ribozyme fitness, log enrichment relative to wild type (log ratio); higher = more active; in vitro selection for triplet polymerase activity
Outline: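 Genotype fitness is the logarithm of its enrichment divided by wild-type enrichment, using inverse-variance-weighted averages of replicates. That logarithm is base 2. Enrichment was measured by Illumina sequencing of input and output libraries from one triplicate in vitro selection round, with frozen incubation at −7 °C, on PCR-built, transcribed mutant libraries of each subunit of a heterodimeric triplet polymerase ribozyme, retaining genotypes with ≥10 input reads and ≥1 read per output.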

| Variant | polymerase ribozyme fitness (log ratio) |
| --- | --- |
| C13G | -1.53 |
| C13A G63U U112C | -1.77 |
| C13A A18U C53U | -3.95 |
| C13A G47U G63U | -4.2 |
| C12U C13A G60C A121U | 1 |
| C12G G19A G63U C79G U81G U112C G117U | -7.76 |
| C12G C13A G45C C56U | -1.27 |
| C12U G36U | -0.34 |
| C12U A18C A29G C82U U92A | -3.51 |
| C12U G23A G120A | -3.8 |
| C12U G39A C72G C85U | -1.34 |
| C12U C13A C72G U78C | -1.57 |
| C12G C40A A50C C80A A84C C104U | -3.24 |
| C13A C49U C53G U112C | -2.14 |
| C12U C56A C73A U78C A111G U129G | -1.25 |
| C12U U132A | 0.262 |
| C12G G61C | -0.968 |
| C13A U21C G57A U59G A75U C86U C97U | -5.71 |
| C12A U54A G113C U125G | -3.66 |
| C12G A26G C98U | -3.76 |
| C12G C88U A105U C123A | -0.335 |
| C13A C115U | -3.06 |
| C12U A83C | 0.0344 |
| C12U G122A | -0.00508 |

| Variant | polymerase ribozyme fitness (log ratio) |
| --- | --- |
| C12U A50U | -1.64 |
| C12U C72U U130G | -0.295 |
| C12U G25A G93C G120C | -7.38 |
| C12U C13A C114G | -4 |
| C12G G44U G60U A100U | -0.779 |
| C13A A16U G120C | -0.322 |
| C12U A27G G47A G51A G58A G61C A103G A121G | -7.4 |
| C12G C20U C76A | -1.37 |
| C13A A18C | -4.69 |
| C12G G42A G52A C62U C104A | -5.44 |
| C12U G48U A111C | -0.108 |
| C12U C56A G69A U129A | -5.35 |
| C13A C56U U59A | -2.77 |
| C13A A50G G71A | -2.13 |
| C12U U109A | -3.34 |
| C13A U21A U54C C56G C86A U106G C124U | -2.59 |
| C13A G63A G77U U106A C114A | -6.33 |
| C12G C20U C72U G117U | -2.78 |
| C12U G47U C85U U129G | -3.07 |
| C12U C49A U96C | -0.405 |
| C13G A41U C72G C101U | -3.53 |
| C12U A41U A50U G57C C76G C99U | -7.02 |
| C12U C49G G61C | -1.89 |
| C13A A24G U32C C94U C104U G120A | -1.91 |

| Variant | polymerase ribozyme fitness (log ratio) |
| --- | --- |
| C13A G47A C64U G93U C101G U131A | -5.14 |
| C12U U14A C88G | -1.12 |
| C12U G48A C115G U129A G135U | -2.25 |
| C12U C20A C28U A37G G42A G45U A46U G48A C82U G110A A111U A119G | -4.23 |
| C12U C72U C104A U125G | -1.99 |
| C12U C28G | -1.98 |
| C12G C53A | 0.285 |
| C13A C20U G61U C72U | -3.24 |
| C12G G39U G60U C80G C123U | -4.73 |
| C13A U21A A37C G93A | -2.9 |
| C13A A43U G60C C88A | -4.2 |
| C12U A37U A111G C123A | -0.195 |
| C12U G60U | 0.415 |
| C12G C15A C22U A26G U116C A118U C124G | -2.97 |
| C13A G48A C114U U129A | -5.75 |
| C12G C62G A108G | -3.58 |
| C13A C53A | -0.605 |
| C12U C49U G77A C97A C98A U109A A119U G127C | -6.68 |
| C12U C34A C53U C72U | -2.62 |
| C12U C13U C20A G47C C86U | -2.7 |
| C12U G39C G127C U133A | -1.79 |
| C12U G42U G77U G117U U126C | -1.93 |
| C12U A37U A119U | -0.00616 |
| C12U A27G A66C C73A U78C C101A | -4.25 |

| Variant | polymerase ribozyme fitness (log ratio) |
| --- | --- |
| C13A C20U U38A A91U C124G | -1.87 |
| C13A C72G C82A C94U G110A | -3.05 |
| C13G A74C | -2.12 |
| C13A G44A G127C U131C | -2.25 |
| C12G C49A G63U C72U C89A | -3.61 |
| C12U A29C U131G | -2.88 |
| C12U C115U | -0.992 |
| C12U G60C U112G | 0.137 |
| C12U G17C A29G C82A A90U A95C U106C G120A A121U | -6.75 |
| C12G U55C C88A C104G G113A C123G C124A | -6.5 |
| C12U U78A A108U G120C | -5.26 |
| C12U C62G G122U | -0.331 |
| C13A G93C C123G | -0.906 |
| C12U U14G C79U | 0.109 |
| C12G U33G | -4.76 |
| C13G C20U C64U C104A A111U U130G | -5.67 |
| C12G G44U A90C A121U | 0.668 |
| C13A C89G C97U | -3.27 |
| C12U G25U | -6.45 |
| C12G C72U | 0.127 |
| C12G C49G C70A C97U | -1.84 |
| C12G G65A | -3.6 |
| C12G A29U G39U U55G | -2.45 |
| C12G C82U A105U U106A U109G | -1.76 |

| Variant | polymerase ribozyme fitness (log ratio) |
| --- | --- |
| C12U C13U G42U G51C U116G | -7.04 |
| C13A A46U A74U | -3.21 |
| C12G C56A | 0.208 |
| C12U G39U G113U U116G | -5.84 |
| C12U A18G C20U C94U G117U | 0.203 |
| C13G A41U C56U A121G | 0.91 |
| C12U C104U | 0.248 |
| C13G C34U | -6.06 |
| C13A C88A | -2.19 |
| C12A U133G | -1.24 |
| C12U G117C | -1.68 |
| C12U G117U | 0.316 |
| C12U C34G G127A | -6.04 |
| C12A U55G C72U U92G | -2.88 |
| C12G C22U U32G C102A A111U G122U | -7.04 |
| C12G C13U G52U G61U C102U A121U G122C | -1.95 |
| C12G C89U | -0.711 |
| C12G A83U C104A U125G | -2.42 |
| C12U A111G | 0.95 |
| C12U A111U | -2.01 |
| C12G C53A C73G G107C U112C | -3.66 |
| C12G G48A G60A G93A | -1.03 |
| C12U C49A C76G C80G C88A U92C U112C | -7.46 |
| C12G A27G | -1.67 |

| Variant | polymerase ribozyme fitness (log ratio) |
| --- | --- |
| C13A A43C G44A G77A A83U | -4.05 |
| C12U C86U A103U A111U | -4.99 |
| C12U C76U | -0.504 |
| C12U C40U A90G | 0.0487 |
| C12G C34G C114A | -6.75 |
| C12G C64U | 0.291 |
| C12G C64G | -5.49 |
| C13A G60U G69U | -4.92 |
| C13G A83C C94G A119U C123G G127C G135U | -3.17 |
| C12G U33G C70U U87G A118U U125A | -5.53 |
| C12G C15A A108G A111C | -4.53 |
| C13A A16U G117U | -4.37 |
| C12U C13U U38C C40A A91U | -3.21 |
| C12G C56A C70G | -3.89 |
| C12U G63U C85G C88A | -4.33 |
| C12U C99U | -2.6 |
| C13A A18G C73A | -4.96 |
| C12G C28U | -0.928 |
| C12U C49U C97U | -1.6 |
| C12U G39A C56A | -0.34 |
| C13A C70G C98U G120A | -2.39 |
| C13A C72U A83C A84G U112C | -1.46 |
| C13A A26U A46U U81G C114U | -6.71 |
| C13G A46U | -2.39 |

| Variant | polymerase ribozyme fitness (log ratio) |
| --- | --- |
| C12U A16G C73U C102A | -1.8 |
| C13A G36C G69C | -2.94 |
| C12U C15U | -0.154 |
| C13A A43C A83G C102A G110A U129C | -6.67 |
| C12G A46G G63A C115G | -6.03 |
| C13A U112G A121G | -1.42 |
| C13A U92C | -3.57 |
| C12U U54A | 0.369 |
| C13A C15G A37U A103C | -6.73 |
| C13A C40A G93A A118U U129C | -3.28 |
| C12U G51A U78C | -2.26 |
| C12G C15U | -0.505 |
| C13A A16U G60U C88U A121G | 1.33 |
| C13A A43C C101A A111C | -6.5 |
| C12U A16G C20U C64A A84U U112G G113U | -7.14 |
| C12U G45A G48A | -0.563 |
| C12U C76G C79A C99U U126C | -5.59 |
| C13A G120U | -0.457 |
| C12G A41U A83U G113C | -3.27 |
| C12U G120U | 2.06 |
| C12G U92C G120U | 1.41 |
| C12U U54A A91C C115U | -0.811 |
| C12U C15G C79A C85G G120A | -2.63 |
